Series [1] deals with Hermes79-612 C519S (Musca domestica). The experiment in a line: crystal structure.
Series [2] addresses HermesΔ497-516 (Musca domestica).
In series [3] the target is full-length Hermes expressed in Sf9 cells (Musca domestica). Kind of series: SEC. A general note: In gel filtration, larger molecules generally elute earlier.
Series [4] concerns the target full-length Hermes expressed in budding yeast (Musca domestica). Kind of series: SEC.
The series “SEC” deals with the molecule itself. The experiment in a line: SEC.

A word on the stoichiometry N: it is a count of units in the complex or per binding partner. Hermes79-612 C519S (domain or fragment) showed a stoichiometry N in series [1] of 8. On to HermesΔ497-516 (enzyme), for which, in series [2], the stoichiometry N was determined as 2. In the case of “full-length Hermes expressed in Sf9 cells (enzyme)”, the stoichiometry N in series [3] was found to be 8. “full-length Hermes expressed in budding yeast (enzyme)” had a stoichiometry N in series [4] of 8.

B1: full-length Hermes transposase (E. coli-expressed) (enzyme, Musca domestica, UniProt Q25438 1-612, looked up)
chain: MQKMDNLEVKAKINQGLYKITPRHKGTSFIWNVLADIQKEDDTLVEGWVFCRKCEKVLKYTTRQTSNLCRHKCCASLKQSRELKTVSADCKKEAIEKCAQWVVRDCRPFSAVSGSGFIDMIKFFIKVKAEYGEHVNVEELLPSPITLSRKVTSDAKEKKALISREIKSAVEKDGASATIDLWTDNYIKRNFLGVTLHYHENNELRDLILGLKSLDFERSTAENIYKKLKAIFSQFNVEDLSSIKFVTDRGANVVKSLANNIRINCSSHLLSNVLENSFEETPELNMPILACKNIVKYFKKANLQHRLRSSLKSECPTRWNSTYTMLRSILDNWESVIQILSEAGETQRIVHINKSIIQTMVNILDGFERIFKELQTCSSPSLCFVVPSILKVKEICSPDVGDVADIAKLKVNIIKNVRIIWEENLSIWHYTAFFFYPPALHMQQEKVAQIKEFCLSKMEDLELINRMSSFNELSATQLNQSDSNSHNSIDLTSHSKDISTTSFFFPQLTQNNSREPPVCPSDEFEFYRKEIVILSEDFKVMEWWNLNSKKYPKLSKLALSLLSIPASSAASERTFSLAGNIITEKRNRIGQQTVDSLLFLNSFYKNFCKLDI
As to B1, the “stoichiometry N” value in “SEC” is 8.

The values are drawn from publication PMC4105704 (Cell, 2014).
